We go through one molecule from paper PMC4210639 (Neuron, 2014).

For the assay, the target named is T1, FLRT3^LRR (leucine-rich repeat domain of mouse FLRT3) (mouse, UniProt Q8BGT1 29-359).
T1 sequence: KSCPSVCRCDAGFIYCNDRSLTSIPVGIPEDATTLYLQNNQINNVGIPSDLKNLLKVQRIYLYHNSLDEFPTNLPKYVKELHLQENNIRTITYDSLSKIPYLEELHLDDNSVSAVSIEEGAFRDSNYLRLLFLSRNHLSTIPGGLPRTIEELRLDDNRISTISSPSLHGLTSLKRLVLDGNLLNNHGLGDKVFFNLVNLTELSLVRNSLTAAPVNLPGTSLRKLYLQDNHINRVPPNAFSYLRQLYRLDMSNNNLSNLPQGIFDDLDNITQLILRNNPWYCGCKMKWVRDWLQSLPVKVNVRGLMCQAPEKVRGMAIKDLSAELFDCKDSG
Nature of the assay: SPR.

B1: Unc5A^ecto (human Unc5A ectodomain) (domain or fragment)
chain: not shown
With B1, the binding result is listed as “binds”.
